The text below walks through data of US20260256927A1 (Merck Sharp & Dohme, published 2026).

As usually defined, the Kd is the equilibrium constant for the complex coming apart. A low value points to higher affinity.

The target of assay [1] is T1, IL-2Rβ-Fc (Acro Biosystems, catalog #ILB-H5253) (UniProt P14784 27-239, limits assumed).
T1 construct: Bought reagent; Captured on an anti-Fc chip as SPR ligand; also called CD122; not shown: Fc part of the bought fusion
T1 sequence (looked up): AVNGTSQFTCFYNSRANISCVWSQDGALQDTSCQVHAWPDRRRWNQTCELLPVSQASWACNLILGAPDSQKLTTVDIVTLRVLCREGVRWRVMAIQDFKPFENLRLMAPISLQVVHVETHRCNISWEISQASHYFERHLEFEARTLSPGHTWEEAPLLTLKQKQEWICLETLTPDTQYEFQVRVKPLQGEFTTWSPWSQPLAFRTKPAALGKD
Description: SPR (Biacore T200), kinetic; receptor-Fc captured on anti-Fc CM5 chip, IL-2 variant as analyte. How it is done:
(§1) Anti-Fc polyclonal antibodies were immobilized onto a CM5 chip (GE Life Sciences) using amine coupling chemistry (from Amine Coupling Kit, GE Life Sciences). The immobilization steps were carried out at a flow rate of 25 μL/minute in 1×HBS-EP+ buffer (GE Life Sciences; 10× Stock diluted before use). The sensor surfaces were activated for 7 minutes with a mixture of NHS (0.05 M) and EDC (0.2 M). The anti-Fc antibodies were injected over all four flow cells at a concentration of 25 μg/mL in 10 mM sodium acetate, pH 4.5, for seven minutes. Ethanolamine (1 M, pH 8.5) was injected for seven minutes to block any remaining activated groups.
(§2) Kinetic binding experiments were performed at 25° C. using 1×HBS-EP+ with 0.05% BSA buffer. IL-2Rα-Fc or IL-2Rβ-Fc (Acro Biosystems, catalog #ILA-H5251, ILB-H5253) was injected over the anti-Fc surface at concentrations of 3-10 μg/mL for 12 seconds at a flow rate of 10 μL/minute on flow cells 2, 3 and 4, followed by a buffer wash for 30 seconds at the same flow rate. Kinetic characterization of conjugated or unconjugated aldesleukin or variants was carried out in a range of concentrations from 1 nM-10 μM and one injection of no antigen. After capturing ligand (IL-2Rα-Fc or IL-2Rβ-Fc) on the anti-Fc surface, the analyte (IL-2 variant) was bound for 60 seconds, followed by a 180 second dissociation phase at a flow rate of 50 μL/min. Between each ligand capture and analyte binding cycle, regeneration was carried out using two injections of 10 mM Glycine pH 1.5 for 30 seconds at 30 μL/minute, followed by a 30 second buffer wash step.
A general note: Surface plasmon resonance follows binding to a sensor surface in real time, without labels.

For assay [2], the target named is T2, IL-2Rα-Fc (Acro Biosystems, catalog #ILA-H5251) (UniProt P01589 22-217, limits assumed).
T2 construct: Bought reagent; Captured on an anti-Fc chip as SPR ligand; also called CD25; not shown: Fc part of the bought fusion
T2 sequence (looked up): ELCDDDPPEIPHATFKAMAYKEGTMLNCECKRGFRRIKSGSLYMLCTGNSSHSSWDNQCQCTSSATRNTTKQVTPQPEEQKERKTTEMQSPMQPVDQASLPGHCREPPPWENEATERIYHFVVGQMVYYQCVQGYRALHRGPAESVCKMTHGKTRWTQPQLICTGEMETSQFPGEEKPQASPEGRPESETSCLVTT
The assay is described as above. Here is the method: as §1, §2

Assay [3] concerns the target T1, IL-2Rβ-Fc (Acro Biosystems, catalog …). Description: SPR, kinetic binding to IL-2 receptor.
Assay [4] has as its target T2, IL-2Rα-Fc (Acro Biosystems, catalog …). Description: SPR, kinetic binding to IL-2 receptor.
Assay [5] shares this target. Description: SPR, receptor-Fc captured on anti-Fc chip.

B1: Ald-6HIS_V114pAMF (SP9970), unconjugated (ligand)
chain: MPTSSSTKKTQLQLEHLLLDLQMILNGINNYKNPKLTRMLTFKFYMPKKATELKHLQCLEEELKPLEEVLNLAQSKNFHLRPRDLISNINVIVLELKGSETTFMCEYADETATIFEFLNRWITFSQSIISTLTGGSHHHHHH
modifications: X115 = pAMF (V114 in SEQ ID NO: 2/3 numbering)
notes: also called Aldesleukin-6His V114TAG p-azidomethyl-L-phenylalanine
For B1, the results for the Kd in assay [1] and in assay [2] were 300 nM and 50 nM, respectively.

B2: Ald-6HIS_Y30pAMF (SP9957), unconjugated (ligand)
chain: MPTSSSTKKTQLQLEHLLLDLQMILNGINNFKNPKLTRMLTFKFYMPKKATELKHLQCLEEELKPLEEVLNLAQSKNFHLRPRDLISNINVIVLELKGSETTFMCEYADETATIVEFLNRWITFSQSIISTLTGGSHHHHHH
modifications: X31 = pAMF (Y30 in SEQ ID NO: 2/3 numbering)
notes: also called Aldesleukin-6His Y30TAG p-azidomethyl-L-phenylalanine
Take B2: the Kd stood at 200 nM in assay [1] and 9 nM in assay [2].

B3: Ald-6HIS_V114pAMF (SP9970) conjugated to DBCO 2 x 10 kDa PEG (PEG2) (ligand)
chain: MPTSSSTKKTQLQLEHLLLDLQMILNGINNYKNPKLTRMLTFKFYMPKKATELKHLQCLEEELKPLEEVLNLAQSKNFHLRPRDLISNINVIVLELKGSETTFMCEYADETATIFEFLNRWITFSQSIISTLTGGSHHHHHH
modifications: X115 = pAMF (V114) conjugated to branched 20 kDa PEG (DBCO 2 x 10 kDa PEG, PEG2)
notes: also called SP9970 PEG2 conjugated
B3 came in with a Kd in assay [2] of 500 nM.

B4: Aldesleukin-6His_S4/K34/F77 pAMF (SP10682) conjugated to SC547 stump (ligand)
chain: MPTSFSTKKTQLQLEHLLLDLQMILNGINNYKNPFLTRMLTFKFYMPKKATELKHLQCLEEELKPLEEVLNLAQSKNFHLRPRDLISNINVIVLELKGSETTFMCEYADETATIVEFLNRWITFSQSIISTLTGGSHHHHHH
modifications: X5, X35, X78 = pAMF (S4, K34, F77), each conjugated to SC547 (conjugation stump)
notes: also called SP10722 stump conjugate
For B4, the Kd in assay [3] came to 3000 nM; in assay [4], 40 nM.

B5: Ald-6HIS_S4pAMF (SP9954), unconjugated (ligand)
chain: MPTSFSTKKTQLQLEHLLLDLQMILNGINNYKNPKLTRMLTFKFYMPKKATELKHLQCLEEELKPLEEVLNLAQSKNFHLRPRDLISNINVIVLELKGSETTFMCEYADETATIVEFLNRWITFSQSIISTLTGGSHHHHHH
modifications: X5 = p-azidomethyl-L-phenylalanine (pAMF; S4 in SEQ ID NO: 2/3 numbering)
notes: also called Aldesleukin-6His S4TAG p-azidomethyl-L-phenylalanine
For the molecule B5, the Kd in assay [1] came to 300 nM; in assay [2] it was 8 nM.

B6: Aldesleukin-6His_S4/Y30/K34 pAMF F41K (SP10684) conjugated to SC547 stump (ligand)
chain: MPTSFSTKKTQLQLEHLLLDLQMILNGINNFKNPFLTRMLTKKFYMPKKATELKHLQCLEEELKPLEEVLNLAQSKNFHLRPRDLISNINVIVLELKGSETTFMCEYADETATIVEFLNRWITFSQSIISTLTGGSHHHHHH
modifications: X5, X31, X35 = pAMF (S4, Y30, K34), each conjugated to SC547 (conjugation stump)
notes: also called SP10724 stump conjugate
In turn, B6 had a Kd in assay [3] of 3000 nM.

B7: Ald-6HIS_Y30pAMF (SP9957) conjugated to DBCO 2 x 10 kDa PEG (PEG2) (ligand)
chain: MPTSSSTKKTQLQLEHLLLDLQMILNGINNFKNPKLTRMLTFKFYMPKKATELKHLQCLEEELKPLEEVLNLAQSKNFHLRPRDLISNINVIVLELKGSETTFMCEYADETATIVEFLNRWITFSQSIISTLTGGSHHHHHH
modifications: X31 = pAMF (Y30) conjugated to branched 20 kDa PEG (DBCO 2 x 10 kDa PEG, PEG2)
notes: also called SP9957 PEG2 conjugated
The molecule B7 had a Kd in assay [2] of 300 nM.

B8: Aldesleukin-6His_S4/K34/V114 pAMF (SP10683) conjugated to SC547 stump (ligand)
chain: MPTSFSTKKTQLQLEHLLLDLQMILNGINNYKNPFLTRMLTFKFYMPKKATELKHLQCLEEELKPLEEVLNLAQSKNFHLRPRDLISNINVIVLELKGSETTFMCEYADETATIFEFLNRWITFSQSIISTLTGGSHHHHHH
modifications: X5, X35, X115 = pAMF (S4, K34, V114), each conjugated to SC547 (conjugation stump)
notes: also called SP10723 stump conjugate
B8: the values for the Kd in assay [3] and in assay [4] were 2000 nM and 300 nM, respectively.

B9: Aldesleukin-6His_S4/Y30/K34/Q73 pAMF (SP10686) conjugated to SC547 stump (ligand)
chain: MPTSFSTKKTQLQLEHLLLDLQMILNGINNFKNPFLTRMLTFKFYMPKKATELKHLQCLEEELKPLEEVLNLAFSKNFHLRPRDLISNINVIVLELKGSETTFMCEYADETATIVEFLNRWITFSQSIISTLTGGSHHHHHH
modifications: X5, X31, X35, X74 = pAMF (S4, Y30, K34, Q73), each conjugated to SC547 (conjugation stump)
notes: also called SP10726 stump conjugate
For B9, the results for the Kd in assay [3] and in assay [4] were 600 nM and 30 nM, respectively.

B10: Aldesleukin-6His_S4/Y30/K34/R80 pAMF F41K (SP10688) conjugated to SC547 stump (ligand)
chain: MPTSFSTKKTQLQLEHLLLDLQMILNGINNFKNPFLTRMLTKKFYMPKKATELKHLQCLEEELKPLEEVLNLAQSKNFHLFPRDLISNINVIVLELKGSETTFMCEYADETATIVEFLNRWITFSQSIISTLTGGSHHHHHH
modifications: X5, X31, X35, X81 = pAMF (S4, Y30, K34, R80), each conjugated to SC547 (conjugation stump)
notes: also called SP10728 stump conjugate
In turn, B10 showed a Kd in assay [3] of 2000 nM. This lies in the single-digit micromolar range.

B11: SP10724 (Aldesleukin-6His_S4/Y30/K34 pAMF F41K conjugated to SC579) (ligand)
chain: MPTSFSTKKTQLQLEHLLLDLQMILNGINNFKNPFLTRMLTKKFYMPKKATELKHLQCLEEELKPLEEVLNLAQSKNFHLRPRDLISNINVIVLELKGSETTFMCEYADETATIVEFLNRWITFSQSIISTLTGGSHHHHHH
modifications: X5, X31, X35 = pAMF (S4, Y30, K34), each conjugated to SC579 (releasable 20 kDa mPEG Fmoc-DBCO linker)
notes: also called SP10724 PEG conjugate
With B11, the binding result in assay [5] was “no binding”.
